Results as given in the supplement of paper PMC7125110.
± gives the standard error. Variants at the floor of the assay were thinned out.

B1: glmS ribozyme (parent)
chain: AUAAAAGCGCCAGAACUACAGAAAUGUAGUUGACGAGGAGGAGGUUUAUCGAAUUUUCGGCGGAUGCCUCCAAA

What was measured:
Conditions in all cases: with glucosamine-6-phosphate
glucosamine-6-phosphate [1] = variants of: B1; assay: self-cleavage kobs at 160 uM GlcN6P; higher = faster cleavage; RNA array
Outline: (§1)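 E. coli RNA polymerase transcribed barcoded ribozyme variants in situ on sequenced MiSeq chips, which were tracked via a hybridised Cy3 probe at 37 °C. Tiles were imaged over ~14 h after glucosamine-6-phosphate (40 μM to 10 mM) in HEPES/KCl/Mg(OAc)2 buffer was flowed in. Normalised per-tile medians were fit to one- or two-exponential decays for kobs, and kcat and KM came from weighted Michaelis–Menten fits.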

glucosamine-6-phosphate [2] = variants of: B1; assay: self-cleavage kobs at 640 uM GlcN6P; higher = faster cleavage; RNA array
Outline: as §1

glucosamine-6-phosphate [3] = variants of: B1; assay: self-cleavage kobs at 2500 uM GlcN6P; higher = faster cleavage; RNA array
Outline: as §1

glucosamine-6-phosphate [4] = variants of: B1; assay: self-cleavage kobs at 10000 uM GlcN6P; higher = faster cleavage; RNA array
Outline: as §1

Variant | self-cleavage kobs at 160 uM GlcN6P (glucosamine-6-phosphate [1]) | self-cleavage kobs at 640 uM GlcN6P (glucosamine-6-phosphate [2]) | self-cleavage kobs at 2500 uM GlcN6P (glucosamine-6-phosphate [3]) | self-cleavage kobs at 10000 uM GlcN6P (glucosamine-6-phosphate [4])
G38U G41C G59C | < 1e-05 s⁻¹ | < 1e-05 s⁻¹ | – | –
A15G C16G U55A | 0.000205 ± 6e-05 s⁻¹ | 0.000405 ± 0.00011 s⁻¹ | 0.00143 ± 0.0004 s⁻¹ | –
G7U G37U | < 1e-05 s⁻¹ | – | – | < 1e-05 s⁻¹
C8A G9A G37U A39G | < 1e-05 s⁻¹ | – | – | –
A42C C61U | < 1e-05 s⁻¹ | < 1e-05 s⁻¹ | < 1e-05 s⁻¹ | –
A12C G63U | < 1e-05 s⁻¹ | < 1e-05 s⁻¹ | – | < 1e-05 s⁻¹
C8A C16A G40C U65G | < 1e-05 s⁻¹ | – | < 1e-05 s⁻¹ | –
G43C C67U | < 1e-05 s⁻¹ | – | < 1e-05 s⁻¹ | –
C16U G40A U46C | 0.000137 ± 3.1e-05 s⁻¹ | – | 0.000815 ± 0.00018 s⁻¹ | –
G35U C50U | < 1e-05 s⁻¹ | – | – | < 1e-05 s⁻¹
U46A G51C A52G | < 1e-05 s⁻¹ | < 1e-05 s⁻¹ | < 1e-05 s⁻¹ | –
C11U A12C G43C | < 1e-05 s⁻¹ | – | < 1e-05 s⁻¹ | –
G41A U55G C71A | 5.4e-05 ± 1.6e-05 s⁻¹ | 8.59e-05 ± 2.3e-05 s⁻¹ | 0.000196 ± 3.5e-05 s⁻¹ | –
A12C A14U G44U U45A | < 1e-05 s⁻¹ | – | – | –
G51C U56C | < 1e-05 s⁻¹ | < 1e-05 s⁻¹ | < 1e-05 s⁻¹ | < 1e-05 s⁻¹
U30G C34A | < 1e-05 s⁻¹ | < 1e-05 s⁻¹ | < 1e-05 s⁻¹ | –
A36U G63C C67U | < 1e-05 s⁻¹ | < 1e-05 s⁻¹ | < 1e-05 s⁻¹ | –
C34U G35U A39C G63A C67U | < 1e-05 s⁻¹ | – | – | –
C11U C61A G63C | < 1e-05 s⁻¹ | < 1e-05 s⁻¹ | – | –
G37C G43C A52C | < 1e-05 s⁻¹ | – | < 1e-05 s⁻¹ | –
G35C G62U | < 1e-05 s⁻¹ | < 1e-05 s⁻¹ | < 1e-05 s⁻¹ | < 1e-05 s⁻¹
A12U A14U U45A | 0.000413 ± 0.0001 s⁻¹ | 0.00157 ± 0.00031 s⁻¹ | 0.00242 ± 0.00082 s⁻¹ | –
C8U A14U G37U G41U | < 1e-05 s⁻¹ | < 1e-05 s⁻¹ | < 1e-05 s⁻¹ | –
A36U U49G A52C | < 1e-05 s⁻¹ | – | – | –
G9A A36C G41U A64G C70U | < 1e-05 s⁻¹ | < 1e-05 s⁻¹ | < 1e-05 s⁻¹ | < 1e-05 s⁻¹
A39C U57G C71A | < 1e-05 s⁻¹ | < 1e-05 s⁻¹ | < 1e-05 s⁻¹ | –

Variant | self-cleavage kobs at 160 uM GlcN6P (glucosamine-6-phosphate [1]) | self-cleavage kobs at 640 uM GlcN6P (glucosamine-6-phosphate [2]) | self-cleavage kobs at 2500 uM GlcN6P (glucosamine-6-phosphate [3]) | self-cleavage kobs at 10000 uM GlcN6P (glucosamine-6-phosphate [4])
G7A G43C | < 1e-05 s⁻¹ | < 1e-05 s⁻¹ | < 1e-05 s⁻¹ | < 1e-05 s⁻¹
G29U U30G A39U | 8.86e-05 ± 2.1e-05 s⁻¹ | – | 0.0013 ± 0.00029 s⁻¹ | –
A53U G59U C61U G66U | < 1e-05 s⁻¹ | – | < 1e-05 s⁻¹ | –
A48C U55A G66C | < 1e-05 s⁻¹ | – | – | –
C11G G13A G44U U69G | < 1e-05 s⁻¹ | – | < 1e-05 s⁻¹ | –
U31C G41A G59U | < 1e-05 s⁻¹ | < 1e-05 s⁻¹ | < 1e-05 s⁻¹ | –
C8A G38U | < 1e-05 s⁻¹ | – | < 1e-05 s⁻¹ | –
C11U G51U A53G | < 1e-05 s⁻¹ | – | – | –
A33C G44U | < 1e-05 s⁻¹ | < 1e-05 s⁻¹ | < 1e-05 s⁻¹ | < 1e-05 s⁻¹
G29U A39G G59U C67U | < 1e-05 s⁻¹ | < 1e-05 s⁻¹ | – | –
G59U U65A C67U | < 1e-05 s⁻¹ | – | – | –
A39G G62A | < 1e-05 s⁻¹ | – | < 1e-05 s⁻¹ | < 1e-05 s⁻¹
C34U C67U | < 1e-05 s⁻¹ | – | < 1e-05 s⁻¹ | –
C11A C16A | < 1e-05 s⁻¹ | – | – | 2.86e-05 ± 1e-05 s⁻¹
G41U G51A | < 1e-05 s⁻¹ | < 1e-05 s⁻¹ | < 1e-05 s⁻¹ | < 1e-05 s⁻¹
G40C G44A A53C | < 1e-05 s⁻¹ | < 1e-05 s⁻¹ | < 1e-05 s⁻¹ | –
C11A G38A U45A | < 1e-05 s⁻¹ | – | – | –
G29C A48C G62U | < 1e-05 s⁻¹ | < 1e-05 s⁻¹ | < 1e-05 s⁻¹ | –
G7U G41U G59U A64G | < 1e-05 s⁻¹ | – | < 1e-05 s⁻¹ | < 1e-05 s⁻¹
G7U C34A U65G | < 1e-05 s⁻¹ | < 1e-05 s⁻¹ | – | –
C16U A42G A48U G66U | < 1e-05 s⁻¹ | < 1e-05 s⁻¹ | – | –
A6G A33U U57C C58A | < 1e-05 s⁻¹ | < 1e-05 s⁻¹ | – | –
G35C A36U C58U | < 1e-05 s⁻¹ | – | < 1e-05 s⁻¹ | –
A6U A12G A48U G59U G62A | < 1e-05 s⁻¹ | – | – | –
G9C G40U | < 1e-05 s⁻¹ | < 1e-05 s⁻¹ | < 1e-05 s⁻¹ | < 1e-05 s⁻¹
G7A A12C | < 1e-05 s⁻¹ | – | – | –

Variant | self-cleavage kobs at 160 uM GlcN6P (glucosamine-6-phosphate [1]) | self-cleavage kobs at 640 uM GlcN6P (glucosamine-6-phosphate [2]) | self-cleavage kobs at 2500 uM GlcN6P (glucosamine-6-phosphate [3]) | self-cleavage kobs at 10000 uM GlcN6P (glucosamine-6-phosphate [4])
U31A C61G | < 1e-05 s⁻¹ | – | – | < 1e-05 s⁻¹
A36C G37A U46A G66U | < 1e-05 s⁻¹ | < 1e-05 s⁻¹ | < 1e-05 s⁻¹ | –
A12U A15C A42G | 0.00123 ± 0.0005 s⁻¹ | 0.00381 ± 0.0017 s⁻¹ | 0.0282 ± 0.014 s⁻¹ | –
A6G C11U A15U C50U | < 1e-05 s⁻¹ | – | – | < 1e-05 s⁻¹
C10U A12C U31G A42G | < 1e-05 s⁻¹ | – | – | –
C58U C68G | 4.79e-05 ± 1.6e-05 s⁻¹ | 0.000137 ± 2.7e-05 s⁻¹ | 8.11e-05 ± 2e-05 s⁻¹ | –
A39C G60C | < 1e-05 s⁻¹ | – | – | < 1e-05 s⁻¹
G41A C50G | < 1e-05 s⁻¹ | < 1e-05 s⁻¹ | < 1e-05 s⁻¹ | < 1e-05 s⁻¹
U30A G51U | < 1e-05 s⁻¹ | < 1e-05 s⁻¹ | < 1e-05 s⁻¹ | < 1e-05 s⁻¹
A6U G41U C68A | < 1e-05 s⁻¹ | – | < 1e-05 s⁻¹ | –
A12G G32C C71A | < 1e-05 s⁻¹ | < 1e-05 s⁻¹ | – | –
C8U A39U U46C U56C G59U | < 1e-05 s⁻¹ | < 1e-05 s⁻¹ | < 1e-05 s⁻¹ | –
G51C G59A | < 1e-05 s⁻¹ | < 1e-05 s⁻¹ | < 1e-05 s⁻¹ | –
C10G G44U C50U C61U | < 1e-05 s⁻¹ | < 1e-05 s⁻¹ | – | –
C11U G40C G43A G60U U69G C70U | < 1e-05 s⁻¹ | – | < 1e-05 s⁻¹ | –
G9U A52C | < 1e-05 s⁻¹ | – | < 1e-05 s⁻¹ | –
G44U U45G U69A | < 1e-05 s⁻¹ | – | – | –
G29U U45C U56C | < 1e-05 s⁻¹ | – | – | –
A6C G35C U46A C61A | < 1e-05 s⁻¹ | < 1e-05 s⁻¹ | < 1e-05 s⁻¹ | –
G35C A39U U49G C50G | < 1e-05 s⁻¹ | – | < 1e-05 s⁻¹ | –
A6C C8U C67A C70U | < 1e-05 s⁻¹ | – | – | –
G13C C34U | < 1e-05 s⁻¹ | < 1e-05 s⁻¹ | < 1e-05 s⁻¹ | < 1e-05 s⁻¹
A39U U54C G62C | < 1e-05 s⁻¹ | < 1e-05 s⁻¹ | < 1e-05 s⁻¹ | –
C34A A64C C68U | < 1e-05 s⁻¹ | < 1e-05 s⁻¹ | < 1e-05 s⁻¹ | –
G32U G63C | < 1e-05 s⁻¹ | < 1e-05 s⁻¹ | – | < 1e-05 s⁻¹
C50G A53G C61U | 0.000208 ± 7.8e-05 s⁻¹ | 0.000248 ± 8.1e-05 s⁻¹ | 0.000398 ± 9.7e-05 s⁻¹ | 9.79e-05 ± 2.5e-05 s⁻¹

Variant | self-cleavage kobs at 160 uM GlcN6P (glucosamine-6-phosphate [1]) | self-cleavage kobs at 640 uM GlcN6P (glucosamine-6-phosphate [2]) | self-cleavage kobs at 2500 uM GlcN6P (glucosamine-6-phosphate [3]) | self-cleavage kobs at 10000 uM GlcN6P (glucosamine-6-phosphate [4])
A15U G32U G37A G62U | < 1e-05 s⁻¹ | – | – | –
A48G A52C U55C | < 1e-05 s⁻¹ | < 1e-05 s⁻¹ | – | –
G41U G59A | < 1e-05 s⁻¹ | < 1e-05 s⁻¹ | < 1e-05 s⁻¹ | –
U30C C50U U56C | < 1e-05 s⁻¹ | < 1e-05 s⁻¹ | – | –
G9A A12G A14G G35U | < 1e-05 s⁻¹ | – | < 1e-05 s⁻¹ | –
C11U G32U A42U | < 1e-05 s⁻¹ | – | < 1e-05 s⁻¹ | –
G9U C10G C11U C70U | < 1e-05 s⁻¹ | – | < 1e-05 s⁻¹ | –
G7U C50A | < 1e-05 s⁻¹ | < 1e-05 s⁻¹ | – | < 1e-05 s⁻¹
A14C C34A A48C C61G | < 1e-05 s⁻¹ | – | < 1e-05 s⁻¹ | < 1e-05 s⁻¹
C34G A36C G38U A64C | < 1e-05 s⁻¹ | – | – | –
G7C G32U A36U G40U A42U A52G | < 1e-05 s⁻¹ | < 1e-05 s⁻¹ | < 1e-05 s⁻¹ | –
G43A U65C | < 1e-05 s⁻¹ | < 1e-05 s⁻¹ | < 1e-05 s⁻¹ | –
A42U U47C A52C | < 1e-05 s⁻¹ | – | < 1e-05 s⁻¹ | –
C10A G35A A39G | < 1e-05 s⁻¹ | – | < 1e-05 s⁻¹ | –
A15C G32C G38U | < 1e-05 s⁻¹ | – | – | –
C61U A64C C67G | < 1e-05 s⁻¹ | – | < 1e-05 s⁻¹ | –
G35C G40C A52C | < 1e-05 s⁻¹ | < 1e-05 s⁻¹ | < 1e-05 s⁻¹ | –
G7U G9C G59C U69G | < 1e-05 s⁻¹ | < 1e-05 s⁻¹ | – | –
C8U G9C G62A U65G | < 1e-05 s⁻¹ | – | < 1e-05 s⁻¹ | –
G35C C50A G51U A52C | < 1e-05 s⁻¹ | < 1e-05 s⁻¹ | – | –
C10A C16U G41A A42C | < 1e-05 s⁻¹ | < 1e-05 s⁻¹ | < 1e-05 s⁻¹ | < 1e-05 s⁻¹
A33C C34G G40U A48U C61A | < 1e-05 s⁻¹ | < 1e-05 s⁻¹ | < 1e-05 s⁻¹ | –
C34U C71U | < 1e-05 s⁻¹ | < 1e-05 s⁻¹ | < 1e-05 s⁻¹ | < 1e-05 s⁻¹
G13U G35C G51C U54A C70U | < 1e-05 s⁻¹ | – | < 1e-05 s⁻¹ | –
